# Patent US20230416329A1 (INSTITUTE OF MATERIA MEDICA CHINESE ACADEMY OF MEDICAL …, published 2023)
# Bridge positions count the residues as written; N and C are the ends. Ends that are not written are not given here.
# B1: PCSK9_3CH (peptide)
# peptide: FCTYSIPPQCYGGTVFTSWEEALDWV
# modifications: disulfide 2-10 (inferred)
# notes: Contains an anti-chymotrypsin scaffold, with a disulfide bond between its two Cys
# B2: PCSK9_2 (peptide)
# peptide: TVFTSWEEALDWVCGRATKSIPPICF
# modifications: disulfide 14-25 (inferred)
# notes: Hybrid of the Pep2-8 analogue with the anti-trypsin scaffold BT9; A disulfide bond joins the two Cys of the scaffold
# B3: PCSK9_2EC (peptide)
# peptide: TVFTSWEEALDWVGICTASIPPICQ-OH
# modifications: disulfide 16-24 (inferred)
# notes: Contains an anti-elastase scaffold, with a disulfide bond between its two Cys
# B4: PCSK9_2CH (peptide)
# peptide: TVFTSWEEALDWVGFCTYSIPPQCYG
# modifications: disulfide 16-24 (inferred)
# notes: as for B1
# B5: PCSK9_9CH (peptide)
# peptide: TVFTSGFCTYSIPPQCYGWEEYLDWV
# modifications: disulfide 8-16 (inferred)
# notes: as for B1
# B6: PCSK9_7 (peptide)
# peptide: TVFTSGCGRATKSIPPICFWEEYLDWV
# modifications: disulfide 7-18 (inferred)
# notes: Hybrid with the anti-trypsin scaffold BT9; A disulfide bond joins the two Cys of the scaffold
# B7: PCSK9_9 (peptide)
# peptide: TVFTSGRCTKSIPPICFWEEYLDWV
# modifications: disulfide 8-16 (inferred)
# notes: Hybrid with the anti-trypsin scaffold BT45; A disulfide bond joins the two Cys of the scaffold
# B8: PCSK9_9EC (peptide)
# peptide: TVFTSGICTASIPPICQWEEYLDWV
# modifications: disulfide 8-16 (inferred)
# notes: as for B3
# B9: PCSK9_3EC (peptide)
# peptide: ICTASIPPICQGTVFTSWEEALDWV
# modifications: disulfide 2-10 (inferred)
# notes: as for B3
# B10: EC50 (peptide)
# peptide: SNGNAVEDGGLCTASIPPQCY
# modifications: disulfide 12-20 (inferred)
# notes: disulfide bond between the two Cys; peptide name, not a potency value
# B11: PCSK9_8 (peptide)
# peptide: TVFTSGCGRATKSIPPICFSWEEYLDWV
# modifications: disulfide 7-18 (inferred)
# notes: as for B6
# B12: PCSK9_5CH (peptide)
# peptide: WEEALDWVGFCTYSIPPQCYGTVFTS
# modifications: disulfide 11-19 (inferred)
# notes: as for B1
# B13: PCSK9_6CH (peptide)
# peptide: WEEYLDYVGFCTYSIPPQCYGTVFTS
# modifications: disulfide 11-19 (inferred)
# notes: as for B1
# B14: PCSK9_5 (peptide)
# peptide: WEEALDWVCGRATKSIPPICFGTVFTS
# modifications: disulfide 9-20 (inferred)
# notes: as for B6
# B15: PCSK9_6 (peptide)
# peptide: WEEYLDYVCGRATKSIPPICFGTVFTS
# modifications: disulfide 9-20 (inferred)
# notes: as for B6
# B16: PCSK9_4 (peptide)
# peptide: WEEALDWVCGRATKSIPPICFTVFTS
# modifications: disulfide 9-20 (inferred)
# notes: A disulfide bond joins the two Cys of the scaffold
# B17: PCSK9_3 (peptide)
# peptide: CGRATKSIPPICFGTVFTSWEEALDWV
# modifications: disulfide 1-12 (inferred)
# notes: as for B6
# B18: PCSK9_5EC (peptide)
# peptide: WEEALDWVGICTASIPPICQGTVFTS
# modifications: disulfide 11-19 (inferred)
# notes: as for B3
# B19: PCSK9_6EC (peptide)
# peptide: WEEYLDYVGICTASIPPICQGTVFTS
# modifications: disulfide 11-19 (inferred)
# notes: as for B3
# What was measured:
# [1] = molecular target: T1, PCSK9 protein (UniProt Q8NBP7 31-692, limits assumed); experiment: PCSK9-LDLR in vitro binding assay kit, OD450/540; peptide 50 µM, PCSK9 75 ng/mL; inhibition of PCSK9 binding to LDLR
# T1 construct: Kit reagent; also called proprotein convertase subtilisin/kexin type 9
# [2] = molecular target: T1, PCSK9 protein; experiment: PCSK9-LDLR in vitro binding assay kit, OD450/540; peptide 10 µM; inhibition of PCSK9 binding to LDLR
# Description: (§1) Solvent control: replace polypeptide with 5 μL solvent.
# (§2) ^aThe concentration of samples in the table was 50 μM.
# [3] = molecular target: T1, PCSK9 protein; experiment: PCSK9-LDLR in vitro binding assay kit, OD450/540; peptide 100 µM; inhibition of PCSK9 binding to LDLR
# Description: as §1, §2
# [4] = molecular target: T2, porcine pancreatic elastase (porcine, UniProt P00772 27-266); experiment: elastase inhibition, AAApNA substrate, OD405
# T2 construct: substrate AAApNA
# T2 sequence (P00772 27-266 limits assumed): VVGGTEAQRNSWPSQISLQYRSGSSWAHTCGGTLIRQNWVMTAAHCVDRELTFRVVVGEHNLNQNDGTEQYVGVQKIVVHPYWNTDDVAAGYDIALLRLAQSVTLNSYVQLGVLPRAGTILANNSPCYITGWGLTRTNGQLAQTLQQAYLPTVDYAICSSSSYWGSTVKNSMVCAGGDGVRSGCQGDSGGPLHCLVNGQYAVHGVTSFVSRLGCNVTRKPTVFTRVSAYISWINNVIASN
# [5] = molecular target: T2, porcine pancreatic elastase; experiment: elastase inhibition, Ki=IC50/(1+S/Km)
# [6] = molecular target: porcine pancreatic elastase (porcine, UniProt P00772 27-266); experiment: elastase inhibition in vitro
# Description: The substrates N-succinyl-Ala-Ala-Pro-Phe-p-nitroaniline (AAPFpNA), Nα—Benzoyl-L-arginine-4-nitroaniline hydrochloride (BApNA) and N-succinyl-[…] (AAApNA) are used in competitive binding reaction to determine the inhibitory activities against α-chymotrypsin, bovine trypsin, and porcine pancreatic elastase, respectively. Experiments for α-chymotrypsin and bovine trypsin inhibition were measured in 20 mM CaCl₂, 50 mM Tris-HCl buffer (pH 7.8), and that for porcine elastase inhibition was measured in 50 mM Tris-HCl buffer (pH 8.0). The concentration of the peptide was measured using optical density (OD) at 280 nm. The Michaelis constant (Kₘ) of the enzyme hydrolysis substrate is calculated from the initial rate of substrate hydrolysis at 405 nm. The absorbance value of the substrate was measured at 405 nm after complete hydrolysis. All data were processed using nonlinear regression.
# (1) Added a total 190 μL of different concentrations of peptides (ECs) against elastase and reaction buffer (20 mM CaCl₂, 50 mM Tris-HCl buffer (pH 8.0)) into the pre-cold 96 well plate, followed by preheating at 37° C. for 5 min and centrifugated at 500 rpm for 1 min and allowed to stand for 4 minutes. […] Finally, added 2 μL of 100 mM AAApNA, and mixed by centrifugation at 500 rpm for 1 min. The plate was incubated at 37° C. for 60 min, and the absorbance value at 405 nm was measured. Three repetitions were made, and only reaction buffer and substrate were added in the blank control as the minimum absorption value (Min OD_{405 nm}); Only reaction buffer, enzyme and substrate were added in the negative control as the maximum absorption value (Max OD₄₀₅ nm). [0472] (2) In the 200 μL of reaction system, the final concentrations of elastase and AAApNA were 0.5 μM and 1 mM, respectively. [0473] (3) Data statistics
# Target sequence in this assay (P00772 27-266 limits assumed): as above
binder,measurement,setting,value
B1,Inhibitory rate (%),[1],99.2%
B2,Inhibitory rate (%),[1],89.9%
B3,Inhibitory rate (%),[2],73.1%
same,Inhibitory rate (%),[3],100%
GTNEALDNNCGRATKSIPPICFYVANDLKI (disulfide 10-21 (inferred)) [PCSK9_10],Inhibitory rate (%),[1],-18.5%
B4,Inhibitory rate (%),[1],100%
GTNEALDNNCGRATKSIPPICFVANDLK (disulfide 10-21 (inferred)) [PCSK9_11],Inhibitory rate (%),[1],3.6%
B5,Inhibitory rate (%),[2],98.4%
same,Inhibitory rate (%),[3],102%
B6,Inhibitory rate (%),[1],80.7%
B7,Inhibitory rate (%),[1],93.9%
WEEALDWVCGRATKSIPPICFGYVANDLKI (disulfide 9-20 (inferred)) [PCSK9_12],Inhibitory rate (%),[1],44.7%
B8,Inhibitory rate (%),[2],94.3%
same,Inhibitory rate (%),[3],101%
B9,Inhibitory rate (%),[1],99.6%
B10,IC50,[4],970 nM
same,Ki,[5],280 nM
B11,Inhibitory rate (%),[1],75.7%
B12,Inhibitory rate (%),[2],99.4%
B13,Inhibitory rate (%),[2],75.3%
same,Inhibitory rate (%),[3],93.7%
B14,Inhibitory rate (%),[1],77.9%
B15,Inhibitory rate (%),[1],87%
GTNEALDNNCGRATKSIPPICFGTVFTS (disulfide 10-21 (inferred)) [PCSK9_14],Inhibitory rate (%),[1],-8.7%
B16,Inhibitory rate (%),[1],41.4%
B17,Inhibitory rate (%),[1],89.9%
LCTASIPPICQ (disulfide 2-10 (inferred)) [EC12],binding result,[6],binds
LCTASIPPQCQ (disulfide 2-10 (inferred)) [EC18],binding result,[6],binds
ICTASIPPICQ (disulfide 2-10 (inferred)) [EC23],binding result,[6],binds
LCTASNPPICQ (disulfide 2-10 (inferred)) [EC25],binding result,[6],binds
YCTASIPPICQ (disulfide 2-10 (inferred)) [EC29],binding result,[6],binds
LCTASIPPQCY (disulfide 2-10 (inferred)) [EC1],binding result,[6],binds
VCTASIPPICQ (disulfide 2-10 (inferred)) [EC22],binding result,[6],binds
B18,Inhibitory rate (%),[2],85.2%
same,Inhibitory rate (%),[3],95.3%
B19,Inhibitory rate (%),[2],96.7%
same,Inhibitory rate (%),[3],99.4%
